Assays:
[1] = test system: OC-3-VGH ovarian cancer cells; test: MTT assay, anti-proliferative effects; assay type: cell-based, human; conditions: 48 hrs; GnRH 0.1 μg/ml, Antide 0.1 and 0.2 μg/ml, GHR-106 10 and 20 μg/ml
Description: Anti-proliferative effects of GnRH and GHR-106 monoclonal antibody on the growth of cultured cancer cells were also studied by MTT assay. An MTT assay was performed on cancer cells on a 24-well plate, as described by Choi, J-H, et al., Endocrine-Related Cancer (2006) 13:641-651.
1×10^4 Cells were dispensed into each well and cultured for 48 hours. Following removal of cultured media, fresh medium containing GnRH (0.1 μg/ml) or GHR-106 (10 μg/ml) was added to each well for additional 48 hours incubation. After the culture medium was removed, 200 μl of MTT (3-(4,5-dimethylthiazol-2-yl)-2,5-diphenyltetrazoliumbromide) (2.5 mg/ml in PBS, Sigma) was added to each well. After 5 hours of incubation with MTT at 37° C. in a 5% CO2 incubator, the supernatant was removed, and 200 μl of dimethylsulfoxide (DMSO) was added to each well, and shaking at 150 rpm for 5 min. Absorbance at 560 nm was determined spectrophotometrically. The negative control containing cells without any antibody treatment served as the negative control.

[2] = test system: ribosomal proteins (P0, P1, P2 and L37) mRNA in OC-3-VGH cancer cells; test: Semi-quantitative RT-PCR of mRNA expression of ribosomal proteins; assay type: cell-based, human; conditions: 24 hours, GHR-106 10 μg/ml, GnRH 0.1 μg/ml, relative to GAPDH
Source text: Four ribosomal proteins (P0, P1, P2 and L37) were selected for semi-quantitative analysis of mRNA expression. Expression of mRNA of GAPDH gene was used as the internal control. Primers for amplification were as follows:
A housekeeping gene, glyceraldehyde-3-phosphate dehydrogenase (GAPDH) was amplified to check the functional integrity of cDNA and used as internal control by using 5′-[…]-3′ (sense) (SEQ ID NO:20) and 5′-[…]-3′ (antisense) (SEQ ID NO:21) as primers (805 bp) (11).
RNA extraction, cDNA preparation and PCR amplification were conducted as described above in Preparation A.
Percent changes in RT-PCR signals which represent levels of P0, P1, P2, and L37 ribosomal proteins are presented with respect to GAPDH (100%) at 0 and 24 hrs. Messenger RNA expression of these genes of cultured cells without GHR-106 treatment served as the internal negative control and those with GnRH treatment served as positive control.

[3] = target: T1, GnRH receptor on OC-3-VGH cancer cells (Homo sapiens, UniProt P30968); test: Competition with GHR-106 for binding to microwells coated with OC-3-VGH cancer cells; conditions: 2 μg/ml GHR-106; GnRH 0.1 to 10 μg/ml
T1 construct: endogenous in cells; host or cells: OC-3-VGH ovarian cancer cells
T1 sequence (P30968 1-328): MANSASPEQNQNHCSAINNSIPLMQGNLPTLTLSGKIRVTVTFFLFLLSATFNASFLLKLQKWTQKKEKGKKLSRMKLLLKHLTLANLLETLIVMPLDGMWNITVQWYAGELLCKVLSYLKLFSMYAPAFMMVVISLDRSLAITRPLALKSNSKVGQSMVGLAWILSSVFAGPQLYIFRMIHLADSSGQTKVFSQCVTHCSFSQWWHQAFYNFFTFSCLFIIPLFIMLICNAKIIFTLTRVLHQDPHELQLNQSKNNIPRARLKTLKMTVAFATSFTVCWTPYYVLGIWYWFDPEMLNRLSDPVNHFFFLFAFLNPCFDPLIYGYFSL
Description: (§1) Microwells coated with synthetic peptide or cancer cells were used to estimate the affinity constant between GHR-106 and GnRH receptor. Following one hour incubation at 37° C. with GHR-106 in microwells, goat anti-mouse IgG labeled with alkaline phosphatase served as the second antibody for signal detection with p-nitrophenylphosphate.
The decrease in relative signal intensity of antibody binding to cancer cells with increasing GnRH concentrations ranging from 0.1 to 10 μg/ml is shown in FIG. 3A.

A549 = test: TUNEL apoptosis assay, A549; assay type: cell-based, human; conditions: 24-hour treatment
DU-145 = test: TUNEL apoptosis assay, DU-145; assay type: cell-based, human; conditions: 24-hour treatment
MDA-MB-435S = test: TUNEL apoptosis assay, MDA-MB-435S; assay type: cell-based, human; conditions: 24-hour treatment
[4] = target: T2, synthetic peptide corresponding to the N-terminal 1-29 amino acid residues of human GnRH receptor (Homo sapiens, UniProt P30968); test: ELISA, dose-dependent binding to microwells coated with synthetic peptide; conditions: one hour incubation at 37° C.
T2 construct: purchased Gemed Lab, South San Francisco, Calif. and Genescript, NJ (custom synthesis)
T2 sequence (P30968 1-29 limits assumed): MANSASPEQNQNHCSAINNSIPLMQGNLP
Description: as §1

OC-3-VGH cancer cells = test: ELISA, dose-dependent binding to microwells coated with cancer cells; parameters: species or system human; conditions: one hour incubation at 37° C.
Description: as §1

human GnRH receptor = target: T3, human GnRH receptor (Homo sapiens, UniProt P30968); test: Western blot assay of OC-3-VGH ovarian cancer cell extract; assay type: binding; conditions: OC-3-VGH cancer cell extract
T3 construct: endogenous in cells; host or cells: OC-3-VGH ovarian cancer cells
T3 sequence (P30968 1-328): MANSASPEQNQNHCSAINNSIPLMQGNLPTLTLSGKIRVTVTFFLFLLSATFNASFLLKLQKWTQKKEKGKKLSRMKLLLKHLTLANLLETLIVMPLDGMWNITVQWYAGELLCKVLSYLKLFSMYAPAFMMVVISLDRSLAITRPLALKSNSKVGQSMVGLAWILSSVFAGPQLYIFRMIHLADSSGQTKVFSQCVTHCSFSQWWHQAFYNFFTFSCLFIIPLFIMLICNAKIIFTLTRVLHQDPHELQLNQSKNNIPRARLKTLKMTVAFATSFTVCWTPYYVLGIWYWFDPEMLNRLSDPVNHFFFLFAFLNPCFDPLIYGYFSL
Description: Western blot assay was performed with GHR-106 using alkaline phosphatase-labeled goat anti-mouse IgG as the detecting probe.

Molecule: Gonadotropin releasing hormone [GnRH I, reference compound]
- anti-proliferative effect (relative absorbance at 560 nm normalized with negative control) [1]: significantly inhibit the growth of cultured cancer cells
- mRNA expression of four ribosomal proteins (P0, P1, P2 and L37) [2]: down regulation of mRNA expression

Molecule: MANSASPEQNQNHCSAINNSIPLMQGNLP (SEQ ID NO:7) (PEPTIDE (1)...(29) extracellular domain of human GnRH receptor; listed as Homo sapiens) [1-29 synthetic peptide, synthetic peptide corresponding to N-terminal residues 1-29 of human GnRH receptor]
- inhibition of the binding of GHR-106 to cancer cells coated on microwells [3]: inhibit GHR-106 binding

Molecule: Antide
- anti-proliferative effect (relative absorbance at 560 nm normalized with negative control) [1]: induce apoptosis, although to a much lesser extent

Molecule: RP215: antibody used as positive control in the apoptosis assay [reference compound]
- % Apoptosis (Negative Control*) (A549; A549, 10 μg/mL): 30 ± 9 (11 ± 5)^+ %
- % Apoptosis (Negative Control*) (A549; A549, 20 μg/mL): 36 ± 12 (17 ± 3)^+ %
- % Apoptosis (Negative Control*) (DU-145; DU-145, 10 μg/mL): 32 ± 7 (12 ± 3)^+ %
- % Apoptosis (Negative Control*) (DU-145; DU-145, 20 μg/mL): 43 ± 4 (19 ± 15)^− %
- % Apoptosis (Negative Control*) (MDA-MB-435S; 20 μg/mL): 37 ± 8 (6 ± 1)^+ %

B1: GHR-106: monoclonal antibody against synthetic peptide of positions 1-29 of the extracellular domain of human GnRH receptor; hybridoma ATCC PTA-10252 (antibody, V domains shown)
VL: MDSQAQVLILLLLWVSGTCGDIVMSQSPSSLAVSAGEKVTMSCKSSQSLLNSRTRKNYLAWYQQKPGQSPKLLIYWASTRESGVPDRFTGSGSGTDFTLTISSVQAEDLAVYYCKQSYNLYTFGGGTKLEIK
VH: QVQLKESGPGLVAPSQSLSITCTVSGFSLSRYSVHWVRQPPGKGLEWLGMIWGGGSTDYNSALKSRLSISKDNSKSQVFLKMNSLQTDDTAMYYCARGNDGYYSFAYWGQGTLVTVSS
modifications: Synthetically constructed monoclonal antibody GHR106
- dose-dependent binding to 1-29 synthetic peptide coated onto microwells [4]: dose-dependent binding
- dose-dependent binding to OC-3-VGH cancer cells coated on microwells (OC-3-VGH cancer cells): dose-dependent binding
- molecular weight of protein band recognized in Western blot (human GnRH receptor): approximately 60 KDa
- % Apoptosis (Negative Control*) (A549; A549, 10 μg/mL): 34 ± 10 (11 ± 5)^+ %
- % Apoptosis (Negative Control*) (A549; A549, 20 μg/mL): 46 ± 11 (17 ± 3)^+ %
- % Apoptosis (Negative Control*) (DU-145; DU-145, 10 μg/mL): 32 ± 2 (12 ± 3)^+ %
- % Apoptosis (Negative Control*) (DU-145; DU-145, 20 μg/mL): 32 ± 5 (19 ± 15)^− %
- % Apoptosis (Negative Control*) (MDA-MB-435S; 10 μg/mL): 31 ± 4 (7 ± 2)^+ %
- % Apoptosis (Negative Control*) (MDA-MB-435S; 20 μg/mL): 45 ± 11 (6 ± 1)^+ %
- anti-proliferative effect (relative absorbance at 560 nm normalized with negative control) [1]: significantly inhibit the growth of cultured cancer cells
- mRNA expression of four ribosomal proteins (P0, P1, P2 and L37) [2]: significant decrease in expression

B2: GHR-103: monoclonal antibody to human GnRH receptor; amino acid sequence determined to be the same as that of GHR-106 (antibody, V domains shown)
VL: MDSQAQVLILLLLWVSGTCGDIVMSQSPSSLAVSAGEKVTMSCKSSQSLLNSRTRKNYLAWYQQKPGQSPKLLIYWASTRESGVPDRFTGSGSGTDFTLTISSVQAEDLAVYYCKQSYNLYTFGGGTKLEIK
VH: QVQLKESGPGLVAPSQSLSITCTVSGFSLSRYSVHWVRQPPGKGLEWLGMIWGGGSTDYNSALKSRLSISKDNSKSQVFLKMNSLQTDDTAMYYCARGNDGYYSFAYWGQGTLVTVSS
- dose-dependent binding to 1-29 synthetic peptide coated onto microwells [4]: dose-dependent binding
- dose-dependent binding to OC-3-VGH cancer cells coated on microwells (OC-3-VGH cancer cells): dose-dependent binding
- molecular weight of protein band recognized in Western blot (human GnRH receptor): 60 KDa

Source: patent US8361793B2, “Monoclonal antibodies against gonadotropin-releasing hormone receptor” (Vancouver Biotech Ltd., priority 2009, dated 2013)
